The source of these data is US6413943.

For experiment [1], the target named is CDK4/cyclin D1 complex (UniProt P11802). Kind of experiment: cell-based or functional assay.
Experiment [2] addresses CDK2/cyclin E (UniProt P24941). Kind of experiment: in vitro kinase assay; mixture of p27 and p16.
The target in experiment [3] is CDC2/cyclin B (UniProt P06493). Nature of the experiment: in vitro kinase assay; mixture of p27 and p16.
The target of experiment [4] is CDK2/cyclin E complex (UniProt P24941). Kind of experiment: cell-based or functional assay.
The target in experiment [5] is CDK2/cyclin A complex (UniProt P24941). Kind of experiment: cell-based or functional assay.
For experiment [6], the target named is CDC2/cyclin B complex (UniProt P06493). Kind of experiment: cell-based or functional assay.
CDC2/cyclin B complex, sequence (P06493 whole entry, one chain of several): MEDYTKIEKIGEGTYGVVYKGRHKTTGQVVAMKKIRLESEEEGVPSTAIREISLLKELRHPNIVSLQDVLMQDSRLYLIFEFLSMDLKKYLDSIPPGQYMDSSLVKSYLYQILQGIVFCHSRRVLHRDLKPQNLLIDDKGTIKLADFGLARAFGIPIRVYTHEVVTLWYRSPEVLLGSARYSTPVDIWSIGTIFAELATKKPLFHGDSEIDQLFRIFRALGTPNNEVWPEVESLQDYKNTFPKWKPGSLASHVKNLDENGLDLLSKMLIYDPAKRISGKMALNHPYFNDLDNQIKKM

CDK4/cyclin D1 complex, sequence (P11802 whole entry, chain 1 of 2): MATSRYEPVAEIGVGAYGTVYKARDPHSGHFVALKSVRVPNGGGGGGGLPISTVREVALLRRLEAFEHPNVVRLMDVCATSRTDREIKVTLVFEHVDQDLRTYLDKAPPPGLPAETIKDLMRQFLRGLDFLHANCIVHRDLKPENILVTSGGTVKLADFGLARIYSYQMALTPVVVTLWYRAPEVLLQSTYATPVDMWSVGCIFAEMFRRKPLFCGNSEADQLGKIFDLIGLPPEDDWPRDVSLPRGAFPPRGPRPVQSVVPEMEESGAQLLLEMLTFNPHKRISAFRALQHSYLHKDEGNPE
CDK4/cyclin D1 complex, sequence (P24385 whole entry, chain 2 of 2, further chain): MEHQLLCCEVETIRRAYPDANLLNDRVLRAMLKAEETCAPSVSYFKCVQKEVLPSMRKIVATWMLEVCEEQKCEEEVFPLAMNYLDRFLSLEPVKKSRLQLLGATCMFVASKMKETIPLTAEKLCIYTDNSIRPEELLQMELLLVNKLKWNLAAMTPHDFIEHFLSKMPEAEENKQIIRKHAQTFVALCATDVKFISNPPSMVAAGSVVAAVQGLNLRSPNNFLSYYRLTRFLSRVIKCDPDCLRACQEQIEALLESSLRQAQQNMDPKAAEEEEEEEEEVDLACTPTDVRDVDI
CDC2/cyclin B, sequence (P06493 whole entry): as the sequence (P06493 whole entry, one chain of several) above

In experiment [1], human p27 (from UniProt P46527 1-198) returned an IC50, in vitro kinase activity (GST-Rb phosphorylation) of 63 nM.

Consider p27 + p16, for which the IC50 in experiment [2] stood at 1.7 nM; in experiment [3], 12 nM.

For p27-p16 fusion protein, the IC50, in vitro kinase activity (GST-Rb phosphorylation) in experiment [1] is 25 nM; in experiment [4] it was 30 nM. In experiment [5], this substance gave an IC50, in vitro kinase activity of 25 nM. In addition, in experiment [6], the IC50, in vitro kinase activity (histone H1 phosphorylation) came to 15 nM.
